These results are taken from paper PMC2104711.

Settings in all cases: remark: other sources report otherwise
In experiment [1] the target is T1, human XLF (1–233) with N-terminal His6 tag (XLF410) (human), Q9H9Q4.
T1 chain: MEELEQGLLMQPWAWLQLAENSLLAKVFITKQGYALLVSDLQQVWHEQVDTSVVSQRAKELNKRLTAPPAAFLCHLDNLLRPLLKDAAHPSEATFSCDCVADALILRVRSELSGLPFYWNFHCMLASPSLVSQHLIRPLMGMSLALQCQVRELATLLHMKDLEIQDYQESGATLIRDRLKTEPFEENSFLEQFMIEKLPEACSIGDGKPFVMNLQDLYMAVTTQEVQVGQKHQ
Kind of experiment: cross-linking.

Experiment [2] concerns the target T2, SeMet-substituted human XLF (1–233) (SeMet-XLF441, cleaved) (human), Q9H9Q4.
T2 chain: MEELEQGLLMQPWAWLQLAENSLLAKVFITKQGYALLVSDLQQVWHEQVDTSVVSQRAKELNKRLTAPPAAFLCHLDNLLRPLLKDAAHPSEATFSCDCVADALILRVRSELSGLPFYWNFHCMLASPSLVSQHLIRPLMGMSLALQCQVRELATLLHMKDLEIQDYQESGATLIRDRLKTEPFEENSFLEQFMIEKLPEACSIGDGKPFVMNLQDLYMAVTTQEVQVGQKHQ
Kind of experiment: crystal structure.

Experiment [3] concerns the target T3, human XLF/Cernunnos (1–233), tag-free (cleaved XLF441) (human), Q9H9Q4.
T3 chain: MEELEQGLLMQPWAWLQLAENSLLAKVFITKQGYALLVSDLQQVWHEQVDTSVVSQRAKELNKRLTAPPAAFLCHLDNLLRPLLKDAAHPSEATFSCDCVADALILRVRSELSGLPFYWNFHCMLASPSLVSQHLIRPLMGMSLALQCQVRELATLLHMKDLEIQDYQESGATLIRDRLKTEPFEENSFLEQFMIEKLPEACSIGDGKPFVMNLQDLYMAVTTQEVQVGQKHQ
Kind of experiment: dynamic light scattering.

B1: human XLF (1–233) with N-terminal His6 tag (XLF410), Q9H9Q4 1-233 (domain or fragment)
chain: MEELEQGLLMQPWAWLQLAENSLLAKVFITKQGYALLVSDLQQVWHEQVDTSVVSQRAKELNKRLTAPPAAFLCHLDNLLRPLLKDAAHPSEATFSCDCVADALILRVRSELSGLPFYWNFHCMLASPSLVSQHLIRPLMGMSLALQCQVRELATLLHMKDLEIQDYQESGATLIRDRLKTEPFEENSFLEQFMIEKLPEACSIGDGKPFVMNLQDLYMAVTTQEVQVGQKHQ
Turning to B1, the stoichiometry N in experiment [1] amounted to 2.

B2: SeMet-substituted human XLF (1–233) (SeMet-XLF441, cleaved), Q9H9Q4 1-233 (domain or fragment)
chain: MEELEQGLLMQPWAWLQLAENSLLAKVFITKQGYALLVSDLQQVWHEQVDTSVVSQRAKELNKRLTAPPAAFLCHLDNLLRPLLKDAAHPSEATFSCDCVADALILRVRSELSGLPFYWNFHCMLASPSLVSQHLIRPLMGMSLALQCQVRELATLLHMKDLEIQDYQESGATLIRDRLKTEPFEENSFLEQFMIEKLPEACSIGDGKPFVMNLQDLYMAVTTQEVQVGQKHQ
modifications: here or on the partner: selenomethionine-substituted (SeMet in place of methionine); selenomethionine-substituted (SeMet in place of methionine)
Consider B2, for which, in experiment [2], the stoichiometry N was 2.

B3: human XLF/Cernunnos (1–233), tag-free (cleaved XLF441), Q9H9Q4 1-233 (domain or fragment)
chain: MEELEQGLLMQPWAWLQLAENSLLAKVFITKQGYALLVSDLQQVWHEQVDTSVVSQRAKELNKRLTAPPAAFLCHLDNLLRPLLKDAAHPSEATFSCDCVADALILRVRSELSGLPFYWNFHCMLASPSLVSQHLIRPLMGMSLALQCQVRELATLLHMKDLEIQDYQESGATLIRDRLKTEPFEENSFLEQFMIEKLPEACSIGDGKPFVMNLQDLYMAVTTQEVQVGQKHQ
In experiment [3], B3 registered a stoichiometry N of 2.
